Test results as given in article PMC5758902.
Changes are numbered by the printed parent chain.

T1: NgoS (MutS) (Neisseria gonorrhoeae, UniProt Q5F5J4 1-814)
T1 sequence: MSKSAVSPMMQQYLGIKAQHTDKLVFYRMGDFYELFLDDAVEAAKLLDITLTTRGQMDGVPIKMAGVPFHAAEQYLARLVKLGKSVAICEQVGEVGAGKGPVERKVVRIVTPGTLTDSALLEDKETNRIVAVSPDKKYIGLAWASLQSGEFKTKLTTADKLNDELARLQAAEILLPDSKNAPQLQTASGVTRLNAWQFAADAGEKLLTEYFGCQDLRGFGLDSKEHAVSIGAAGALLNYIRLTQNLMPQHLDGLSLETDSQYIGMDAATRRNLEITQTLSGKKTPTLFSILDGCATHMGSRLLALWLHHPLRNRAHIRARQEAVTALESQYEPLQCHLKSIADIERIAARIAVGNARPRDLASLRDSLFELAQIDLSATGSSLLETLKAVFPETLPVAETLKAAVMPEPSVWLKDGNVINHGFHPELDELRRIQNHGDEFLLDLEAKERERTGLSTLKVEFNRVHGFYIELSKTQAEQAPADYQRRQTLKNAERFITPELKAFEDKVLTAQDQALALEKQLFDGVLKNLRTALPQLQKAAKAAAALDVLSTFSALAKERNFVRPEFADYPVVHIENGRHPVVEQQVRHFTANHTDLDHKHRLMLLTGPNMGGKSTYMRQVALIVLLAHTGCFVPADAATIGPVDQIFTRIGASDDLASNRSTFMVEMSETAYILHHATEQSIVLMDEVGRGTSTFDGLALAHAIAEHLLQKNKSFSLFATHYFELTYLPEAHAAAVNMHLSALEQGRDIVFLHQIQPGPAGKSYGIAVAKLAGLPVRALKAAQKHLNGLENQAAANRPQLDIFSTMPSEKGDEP

T2: NgoS E687A (Neisseria gonorrhoeae, UniProt Q5F5J4 1-814, E687A)
T2 sequence: T1 sequence with E687A

B1: 30mer homoduplex (dsDNA)
DNA 1: AGCTGCCAGGCACCAGTGTCAGCGTCCTAT
DNA 2: ATAGGACGCTGACACTGGTGCCTGGCAGCT
B2: 30mer G:T heteroduplex (dsDNA)
DNA 1: B1 DNA 1
DNA 2: B1 DNA 2 with C22T
B3: 31mer G:T heteroduplex (dsDNA)
DNA 1: GCGATGTTGCTGACGCTGGTGCCTGGCAGCT
DNA 2: AGCTGCCAGGCACCAGTGTCAGCAACATCGC

Experiments:
NgoS (MutS) [1] = target: T1, NgoS (MutS); experiment: DLS
NgoS E687A = target: T2, NgoS E687A; experiment: fluorescence anisotropy
NgoS (MutS) [2] = target: T1, NgoS (MutS); experiment: fluorescence anisotropy

Binder | binding result (NgoS (MutS) [1]) | binding result (NgoS E687A) | binding result (NgoS (MutS) [2])
B1 | binds | – | –
B2 | binds | – | –
B3 | – | binds | binds
